The results in this text go back to patent publication US20240228562A1 (Pieris, published 2024).

Assay [1] deals with T1, recombinant human CTGF-Fc protein (Creative Biomart) (human).
T1 construct: Bought; also called human CTGF with a human IgG1 Fc Tag
As to the kind of experiment: SPR (Biacore). How it is done: (§1) The binding of exemplary lipocalin muteins to human (Creative Biomart), cynomolgus, rat (R&D Systems) and mouse CTGF (Abbexa) was determined by SPR using a Biacore instrument (Cytiva, formerly GE Healthcare). Some targets were fused to a human IgG1 Fc tag, and captured via the anti-human IgG antibody kit, others were directly immobilized.
(§2) For some measurements, human CTGF with a human IgG1 Fc Tag or rat or murine CTGF without a tag were directly immobilized to a CM5 Chip. The carboxyl groups on the chip were activated using 1-ethyl-3-(3-dimethylaminopropyl)-carbodiimide (EDC) and N-hydroxysuccinimide (NHS). […] Residual non-reacted NHS-esters were blocked by passing a solution of 1 M ethanolamine across the surface. The reference channel was activated/deactivated. For the capture setting, targets with an IgG Fc Tag at 0.25-2.5 μg/mL in HBS-EP+ buffer were captured by the anti-human IgG-Fc antibody at the chip surface for 180 s at a flow rate of 10 μL/min.
(§3) The binding assay was carried out with a contact time of 180 s, a dissociation time of 900-3600 s and a flow rate of 30 μL/min. All measurements were performed at 25° C. […] For the directly immobilized targets, the same regeneration conditions were used. Prior to the protein measurements, three startup cycles were performed for conditioning purposes.

Assay [2] concerns the target T2, mouse CTGF (Abbexa) (mouse, UniProt P29268 26-348, limits assumed).
T2 construct: also called Murine CTGF; mCTGF
T2 sequence (looked up): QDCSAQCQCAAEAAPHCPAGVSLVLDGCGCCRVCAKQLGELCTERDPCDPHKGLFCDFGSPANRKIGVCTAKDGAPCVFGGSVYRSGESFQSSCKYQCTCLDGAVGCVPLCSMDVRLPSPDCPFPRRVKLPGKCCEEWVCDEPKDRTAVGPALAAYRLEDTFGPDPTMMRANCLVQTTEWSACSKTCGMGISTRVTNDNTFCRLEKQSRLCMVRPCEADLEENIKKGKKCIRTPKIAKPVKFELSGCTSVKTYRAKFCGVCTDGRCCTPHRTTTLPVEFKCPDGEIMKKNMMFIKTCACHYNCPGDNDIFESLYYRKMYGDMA
As to the kind of experiment: SPR (Biacore). How it is done:
as §1, §2, §3

Substitutions are numbered along the chain they refer to.

T1 sequence (chain, as listed by the source limits assumed): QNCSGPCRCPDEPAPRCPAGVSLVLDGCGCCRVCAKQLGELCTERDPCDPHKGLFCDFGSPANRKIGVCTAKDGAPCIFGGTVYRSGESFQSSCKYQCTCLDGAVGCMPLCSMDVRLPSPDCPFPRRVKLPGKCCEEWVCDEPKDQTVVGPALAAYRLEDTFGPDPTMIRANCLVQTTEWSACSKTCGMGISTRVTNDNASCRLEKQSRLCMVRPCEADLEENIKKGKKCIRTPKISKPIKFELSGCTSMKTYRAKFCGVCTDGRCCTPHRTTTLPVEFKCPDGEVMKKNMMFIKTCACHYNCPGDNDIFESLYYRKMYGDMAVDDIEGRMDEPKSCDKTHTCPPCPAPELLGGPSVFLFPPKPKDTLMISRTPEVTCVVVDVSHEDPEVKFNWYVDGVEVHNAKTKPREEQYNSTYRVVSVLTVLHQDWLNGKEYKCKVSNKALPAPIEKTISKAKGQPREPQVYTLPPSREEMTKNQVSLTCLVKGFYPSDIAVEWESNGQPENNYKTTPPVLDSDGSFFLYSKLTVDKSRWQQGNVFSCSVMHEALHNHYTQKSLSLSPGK

B1: lipocalin mutein of SEQ ID NO: 27 (designed binder)
chain: QDSTSDLIPAPPLSKVPLQQNFQDNQFQGKWYVVGLAGNYRLREDKDPSKMGATIYELKEDKSYDVTQVQFDDKKCLYVIETFVPGSQPGEFTLGAIKSYPGLTSQLVRVVSTNYNQHAMVFLKKVYGSEEYFHITLYGRTKELTSELKENFIRFSKSLGLPENHIVFPVPIDQCIDG
notes: also called hNGAL mutein; not shown: C-terminal His-tag
In the case of B1, in assay [1], the Kd is 802 pM, the koff was 2.45e-05 s⁻¹ and the kon was determined as 30500 M⁻¹ s⁻¹. In addition, in assay [2], binding was characterised by a dissociation constant (Kd) of 4160 pM, the off-rate (koff) is 0.000172 s⁻¹ and the kon is 41400 M⁻¹ s⁻¹.

B2: lipocalin mutein of SEQ ID NO: 28 (designed binder)
chain: B1 chain with L123V, Y127W, G128P, S129N, E130L, H134Q, T136V
notes: as for B1
In the case of B2, in assay [1], the dissociation constant (Kd) worked out at 517 pM, the koff was found to be 2.61e-05 s⁻¹ and the kon is 50400 M⁻¹ s⁻¹. In assay [2], this molecule came in with a dissociation constant Kd of 1360 pM, a koff of 8.23e-05 s⁻¹ and a kon of 60700 M⁻¹ s⁻¹.

B3: lipocalin mutein of SEQ ID NO: 26 (designed binder)
chain: B1 chain with A96N, S99V, G102T, T104E, L123F, G128Q, S129N, E130R, Y132V, H134W
notes: as for B1
As to B3, in assay [1], the Kd came out at 1320 pM, the koff amounted to 3.06e-05 s⁻¹ and the kon was 23200 M⁻¹ s⁻¹. In assay [2], binding was put at a Kd of 5900 pM, the off-rate (koff) turned out to be 0.000208 s⁻¹ and the kon is 35300 M⁻¹ s⁻¹.

B4: lipocalin mutein of SEQ ID NO: 4 (designed binder)
chain: QDSTSDLIPAPPLSKVPLQQNFQDNQFHGKWYVVGRAGNNRLREDKDPPKMWATIYELKEDKSYDVTHVHFMTKKCRYIIDTFVPGSQPGEFTLGAIKSGPGMTSPLVRIVSTNYNQHAMVFFKWVNQNREWFTITLYGRTKELTSELKENFIRFSKSLGLPENHIVFPVPIDQCIDG
notes: also called optimized lipocalin mutein; hNGAL mutein
In the case of B4, the binding result in assay [1] was “binds”.

B5: lipocalin mutein of SEQ ID NO: 30 (designed binder)
chain: QDSTSDLIPAPPLSKVPLQQNFQDNQFHGKWYVVGWAGNIKLREDKDPFKMSATIYELKEDKSYDVTEVVFEQKKCHYIIKTFVPGSQPGEFTLGDIKSPPGETSSLVRVVSTNYNQHAMVFFKKVFQNREFFWITLYGRTKELTSELKENFIRFSKSLGLPENHIVFPVPIDQCIDG
notes: as for B4
Regarding B5, in assay [1], the binding result was “binds”.

B6: lipocalin mutein of SEQ ID NO: 32 (designed binder)
chain: QDSTSDLIPAPPLSKVPLQQNFQDNQFQGKWYVVGWAGNVKLREDKQPFKMSATIYELKEDKSYDVTEVVFEQKKCHYIIKTFVPGSQPGEFTLSPISSSPGLVSHLVRVVSTNYNQHAMVFFKKVHQNREFFWITLYGRTKELTSELKENFIRFSKSLGLPENHIVFPVPIDQCIDG
notes: as for B1
B6: in assay [1], the dissociation constant (Kd) was determined as 587 pM, the koff was 6.39e-05 s⁻¹ and the kon is 109000 M⁻¹ s⁻¹. In assay [2], this molecule came in with a dissociation constant Kd of 1980 pM, a koff of 0.000264 s⁻¹ and a kon of 133000 M⁻¹ s⁻¹.

B7: lipocalin mutein of SEQ ID NO: 16 (designed binder)
chain: QDSTSDLIPAPPLSKVPLQQNFQDNQFQGKWYVVGLAGNAILRTDKQPAKMFATIYELKEDKSYDVTSVRFEAKSCVYTIKTFVPGSQPGEFTAGNIKSAPGQTSTLVRVVSTNYNQHAMVFFKHVSQNREFFVITLYGRTKELTSELKENFIRFSKSLGLPENHIVFPVPIDQCIDG
notes: as for B1
For B7, in assay [1], the Kd turned out to be 760 pM, the koff worked out at 7.02e-05 s⁻¹ and the kon came out at 92300 M⁻¹ s⁻¹. In assay [2], this molecule gave a Kd of 393 pM, a koff of 6.34e-05 s⁻¹ and a kon of 161000 M⁻¹ s⁻¹.

B8: lipocalin mutein of SEQ ID NO: 14 (designed binder)
chain: B7 chain with T44E, Q47Y, V77I, A94R, F132I
notes: as for B1
B8: in assay [1], the Kd came to 523 pM, the koff turned out to be 5.34e-05 s⁻¹ and the kon was 102000 M⁻¹ s⁻¹. Moreover, in assay [2], the Kd was found to be 369 pM, the koff is 7.03e-05 s⁻¹ and the kon was 190000 M⁻¹ s⁻¹.

B9: lipocalin mutein of SEQ ID NO: 11 (designed binder)
chain: B7 chain with T44E, V77S, I80S, F132T
notes: as for B1
For B9, in assay [1], the Kd came out at 2440 pM, the koff was 0.000108 s⁻¹ and the kon amounted to 44400 M⁻¹ s⁻¹. In addition, in assay [2], binding was characterised by a dissociation constant (Kd) of 1020 pM, the koff came out at 8.19e-05 s⁻¹ and the kon was 80100 M⁻¹ s⁻¹.

B10: lipocalin mutein of SEQ ID NO: 19 (designed binder)
chain: B7 chain with T44E, V77S, F123H, H125A, F132S
notes: as for B1
B10: in assay [1], the dissociation constant Kd stood at 918 pM, the koff came to 5.2e-05 s⁻¹ and the kon came to 56600 M⁻¹ s⁻¹. Also, in assay [2], the affinity, expressed as Kd, was 273 pM; the dissociation rate constant (koff) was 2.54e-05 s⁻¹; the kon came out at 93200 M⁻¹ s⁻¹.

B11: lipocalin mutein of SEQ ID NO: 12 (designed binder)
chain: B7 chain with T44E, Q47Y, A73N, A94T
notes: as for B1
As to B11, in assay [1], the Kd was found to be 2400 pM, the koff stood at 0.000133 s⁻¹ and the kon was determined as 55600 M⁻¹ s⁻¹. In assay [2], the Kd is 1400 pM, the dissociation rate constant (koff) worked out at 0.000128 s⁻¹ and the kon came out at 91400 M⁻¹ s⁻¹.

B12: lipocalin mutein of SEQ ID NO: 13 (designed binder)
chain: B7 chain with T44E, Q47Y, A73N, I80S, A94T
notes: as for B1
In the case of B12, in assay [1], the equilibrium dissociation constant (Kd) was determined as 49 pM, the dissociation rate constant (koff) came to 2.51e-06 s⁻¹ and the kon was determined as 51000 M⁻¹ s⁻¹.

B13: lipocalin mutein of SEQ ID NO: 21 (designed binder)
chain: B7 chain with T44E, V77S, H125A, S127R, Q128G, N129A, F132S, V134N, T136A
notes: as for B1
In the case of B13, in assay [1], the Kd was determined as 523 pM, the koff is 6.63e-05 s⁻¹ and the kon was 127000 M⁻¹ s⁻¹. Further, in assay [2], the Kd was found to be 173 pM, the koff amounted to 3.94e-05 s⁻¹ and the kon is 228000 M⁻¹ s⁻¹.

B14: lipocalin mutein of SEQ ID NO: 18 (designed binder)
chain: B7 chain with L36I, T44D, Q47Y, A73N, V77I, A94H, A100H, F132I
notes: as for B1
With B14, in assay [1], the Kd was 74 pM, the koff is 3.05e-06 s⁻¹ and the kon came out at 40900 M⁻¹ s⁻¹.

B15: lipocalin mutein of SEQ ID NO: 8 (designed binder)
chain: QDSTSDLIPAPPLSKVPLQQNFQDNQFQGKWYVVGLAGNYGLRTDKRPSKMFATIYELKEDKSYDVTSVRFEQERCHYTIRTFVPGSQPGEFTSGNIGNYPGSYSTLVRVVSTNYNQHAMVFFKSVIQNREYFAITLYGRTKELTSELKENFIRFSKSLGLPENHIVFPVPIDQCIDG
notes: as for B1
Turning to B15, in assay [1], the Kd came to 2520 pM, the koff is 0.000114 s⁻¹ and the kon stood at 45400 M⁻¹ s⁻¹. In assay [2], this molecule had a Kd of 1820 pM, a koff of 0.000131 s⁻¹ and an on-rate (kon) of 72000 M⁻¹ s⁻¹.
